Tested on: K4 kissing-loop RNA reporter
Test: apparent KD of K4 kissing-loop reporter; higher = weaker reporter binding
Conditions: Eterna round: R107
Protocol: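 RNA-MaP round R107: designed RNA switches with theophylline, tryptophan, arginine or FMN aptamers are transcribed on-chip within common flanks. They are titrated with a labelled K4 kissing-loop RNA reporter in RNA-MaP buffer (100 mM Tris pH 7.5, 80 mM KCl, 4 mM MgCl2), without ligand or with the indicated ligand. Median apparent KD per design.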

[1] = input ligand: theophylline 20 uM
[2] = input ligand: tryptophan 2.4 mM
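Also: bound reporter read as fluorescence of individual clusters on recovered sequencing chips by microscopy, with normalized cluster intensities fitted with a binding model.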

Sequence	apparent KD of K4 kissing-loop reporter (input ligand: FMN 200 uM)	apparent KD of K4 kissing-loop reporter (input ligand: arginine 13.2 mM)	apparent KD of K4 kissing-loop reporter (input ligand: none)	apparent KD of K4 kissing-loop reporter [1]	apparent KD of K4 kissing-loop reporter [2]
GAUAAUAGCACGGCCGCCACUGAAAAGCCGUGCUAUACGAGUGAUGUUCGUAAUUAUACGGGAUUCAGGACCGGGUGCAACGGUA [Tryp B SS t1]	0.122 µM	0.115 µM	0.139 µM	0.158 µM	0.0981 µM
GAUAAUUACGUAGGAUAUCCAUAUCCGCGGUCUUGAUGGAUUUUUACGAUCCAGUGAUGUUGGAUUGGAGAAGGACGGAGGCAAA [Arquedis]	0.289 µM	0.392 µM	0.403 µM	0.435 µM	0.362 µM
GAUACACUUUCAGGUAUCCAGUGACUGGAUACCAGCAUGGAAACAUGCCCUUGGCAGCCAGAACUGGAAGUGAUGUUUCCAGUAA [Design7]	0.215 µM	0.166 µM	0.195 µM	0.214 µM	0.199 µM
GAUCGAUGUCAGGAUACCAGCGGAAUCGUCGGAGACUCGAGUGGAGUGAUGUUCCCAGCACGCCCUUGGCAGCCUUGUUUAAGAU [theeternabot_sameState_KL_Theo_B_19]	0.312 µM	0.199 µM	0.318 µM	0.404 µM	0.31 µM
GAUCUGAACGAAAGUUCGGAUCAGUCCGAUACCAGUAUGGAUUCAUACCCUUGGCAGCGGUUAUCUGCUAUGGAGUGAUGUUCCU [Theophylline A K4 12]	0.363 µM	0.332 µM	0.41 µM	0.447 µM	0.227 µM
GAUGGCAUGCGAGGAUAUUGUACGGAGUGAUGUUCCCAUUAUCCAGGUAUUCGAUUGACGAGUAUCCAAGAAGGCGCAUGCCAUC	0.248 µM	0.121 µM	0.136 µM	0.115 µM	0.138 µM
GAUUGUGAUGGAAACAUCGCAAUCUCUGAAGGAGCGCGUGAAAACGCAGGUAGGUCGCAGGACGACAAAGACAGUGAUGUUGUCG [Ex Arginine A K4 2]	0.446 µM	0.424 µM	0.554 µM	0.504 µM	0.416 µM
GAUUGUGAUGGAAACAUCGCAAUCUCUGAAGGAGCGCGUGAAAACGCAGGUAGGUCGCAGGACGACUUUGACAGUGAUGUUGUCG [Ex Arginine A K4 4]	0.186 µM	0.223 µM	0.201 µM	0.216 µM	0.18 µM
GCAAAACGCAGUGAUGUUGCGAUCUCGGAAGGAGCGCGUGAAAACGCAGGUAGGUCGCCGAGUCAGUGAGUAUCUCGCUGUUUGC [Arginine A K4 19]	0.383 µM	0.352 µM	0.489 µM	0.455 µM	0.322 µM
GCAACAUUGGAAGGAUAUCAUUCUGAGUGAUGUUCAGGGUUCAGCUAACGAAAGUUAGUUGUACCAUGAGAAGGUCUAAUGUUGC [Omei KL FMN B SS A v4]	0.332 µM	0.646 µM	1.61 µM	1.22 µM	1.01 µM
GCAACAUUGGGAGGAUAUCAUUCUGAGUGAUGUUCAGGGUUCAGCUAACGAAAGUUAGUUGUACCAUGAGAAGGCCUAAUGUUGC [Omei KL FMN B SS A v2]	0.287 µM	0.769 µM	0.964 µM	0.867 µM	0.961 µM
GCACGAGUGAUGUUCGUUGGCAUGCAUUCCGAGGAUAUGGGAUUAGCCAGAAGGCGGAAUCGGUCUUCGAGUGAUGUUCGAAGAU [Same State FMN A GF 13]	0.104 µM	0.0878 µM	0.113 µM	0.0872 µM	0.109 µM
GCACUCGAAAGAGUGCCUCUCGCCAUCACGUAGGAUAUCUGGAAACAGAGAAGGAUGGCAGUGAUGUUGCUUUCGAUGGCGAGAG	0.165 µM	0.137 µM	0.18 µM	0.174 µM	0.188 µM
GCAGAACGCAGUGAUGUUGCGAAAUCGGAAGGAGCGCGUGAAAACGCAGGUAGGUCGCCGACACAGGGAUUAUAUCCCUGUUUGC [Arginine A K4 17]	0.178 µM	0.169 µM	0.182 µM	0.206 µM	0.133 µM
GCAGCAAAUAAACGAGUGAUGUUCGACGAUACCAGCCUCGAUAGAGGCCCUUGGCAGCGUAAAUGAUCACAAAGCCAAGGGCUGC [#SwitchBubble 1]	0.333 µM	0.375 µM	0.396 µM	0.366 µM	0.362 µM
GCAGUGAUGUUGCACGAGUACGGUAGAGUACGAGGACCGGUACGGCCGCCACUCGUACGGAACUGGCUAAUUUAUGGAAUGGUGA [II]	0.383 µM	0.463 µM	1.44 µM	0.477 µM	0.365 µM
GCAGUGAUGUUGCUCGUUUCAUCGCGAGAUACCAGACCAUAUGAGGUCCCUUGGCAGCUCUAGUCAUCUGGUCCUUUUGCGUACU [theeternabot_exclusion_KL_Theo_A_2]	0.906 µM	0.62 µM	0.941 µM	0.722 µM	0.653 µM
GCAUCCAUGGCAGGAUAUAGCUGAGUGAUGUUCAGGACCCAGUCAGUAUCCAUUACUACUGGACUUCUAGAAGGGCCAUGGAUGC	0.231 µM	0.192 µM	0.288 µM	0.288 µM	0.246 µM
GCAUCCGAUGCAGGAUAUAGAUGAACGAGUGAUGUUUGGAAUUUAUGUCCAAAGCCUACGAUCAGACUAGAAGGGCAUCGGAUGC	0.147 µM	0.0754 µM	0.122 µM	0.197 µM	0.164 µM
GCAUCCUCUGCAGGAUAUCGCGGAGUGAUGUUCCGCGCAUGCCAUAGCGAAAGCUAUGGCAUGCGACGAGAAGGGCAGAGGAUGC	0.165 µM	0.124 µM	0.147 µM	0.157 µM	0.138 µM
GCAUUGAGUGAUGUUUAAGCUUAGUCAUCACGAGGACCGGUACGGCCGCCACUCGUGCUUGGAGCGACCGAUACCCUAGAGACCC [theeternabot_sameState_KL_Trp_A_27]	0.16 µM	0.0625 µM	0.0617 µM	0.247 µM	0.193 µM
GCCAGAGCGCGAAGGAGCGCCGUGACAGGUUGCUGCCGUGGGCAGUGAUGUUGCUCAGUCUGGCAGGUAGGUCGCGUGCUCUGGC	0.196 µM	0.173 µM	0.205 µM	0.228 µM	0.219 µM
